Ends that are not written are not given here.
Target: TLR4/MD2 complex on HEK293-hTLR4-MD2-CD14 cells (human) (UniProt O00206)

GYYYPSDPNTFYAPPYSA (also: HiLyte Fluor 488 label, position not given here) [HiLyte Fluor 488-labeled GK-1]
uptake of GK-1-HF488 (MFI by flow cytometry after trypsin treatment), HEK293-TLR4 cells against HEK293-null cells, 1 h at 4 °C, 5 to 50 uM: 5 fold | uptake of GK-1-HF488 (MFI by flow cytometry after trypsin treatment), HEK293-TLR4 cells against HEK293-null cells, 1 h at 37 °C, 5 to 50 uM: < 30 fold
